The target in experiment [1] is T1, NiVM G head domain (residues 176-602) (Nipah virus Malaysia (NiVM), UniProt Q9IH62). The experiment is described as follows: cryo-EM structure.
Experiment [2] concerns the target T1, NiVM G head domain (residues 176-602). The experiment in a line: BLI.
In experiment [3] the target is NiVM G ectodomain (residues 96-602) (Nipah virus Malaysia (NP_112027), UniProt Q9IH62). The experiment in a line: ELISA.
The target of experiment [4] is LayV G head domain (residues 176-625) (Langya virus (UUV47206), UniProt A0AAX3C924). The experiment in a line: ELISA.
The target in experiment [5] is MojV G head domain (residues 176-625) (Mòjiāng virus (YP_009094095), UniProt W8TIR7). The experiment is described as follows: ELISA.
Experiment [6] has as its target T2, NiVM G head domain (residues 176-602) (Nipah virus Malaysia (NiVM), UniProt Q9IH62 176-602).
T2 sequence: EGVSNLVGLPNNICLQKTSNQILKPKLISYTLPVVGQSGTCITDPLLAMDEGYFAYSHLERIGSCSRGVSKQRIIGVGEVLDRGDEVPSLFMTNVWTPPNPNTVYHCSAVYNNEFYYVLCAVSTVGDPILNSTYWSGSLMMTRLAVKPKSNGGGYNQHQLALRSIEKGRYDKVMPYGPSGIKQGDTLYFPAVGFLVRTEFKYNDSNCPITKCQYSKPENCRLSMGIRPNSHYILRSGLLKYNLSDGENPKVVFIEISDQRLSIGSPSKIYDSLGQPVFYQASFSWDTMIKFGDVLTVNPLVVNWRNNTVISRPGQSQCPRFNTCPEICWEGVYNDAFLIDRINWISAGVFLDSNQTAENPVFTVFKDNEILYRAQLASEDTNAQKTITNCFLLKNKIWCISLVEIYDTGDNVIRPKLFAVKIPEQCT
The experiment in a line: BLI.

For experiment [7], the target named is deglycosylated NiVM G head domain without the His-tag (for crystallization) (Nipah virus Malaysia (NP_112027), UniProt Q9IH62). The experiment in a line: crystal structure.
The target in experiment [8] is HeV G head domain (residues 176-605) (Hendra virus (NP_047112, isolate …, UniProt O89343)). The experiment is described as follows: ELISA.
Sequence of HeV G head domain (residues 176-605) (Hendra virus (O89343 176-604): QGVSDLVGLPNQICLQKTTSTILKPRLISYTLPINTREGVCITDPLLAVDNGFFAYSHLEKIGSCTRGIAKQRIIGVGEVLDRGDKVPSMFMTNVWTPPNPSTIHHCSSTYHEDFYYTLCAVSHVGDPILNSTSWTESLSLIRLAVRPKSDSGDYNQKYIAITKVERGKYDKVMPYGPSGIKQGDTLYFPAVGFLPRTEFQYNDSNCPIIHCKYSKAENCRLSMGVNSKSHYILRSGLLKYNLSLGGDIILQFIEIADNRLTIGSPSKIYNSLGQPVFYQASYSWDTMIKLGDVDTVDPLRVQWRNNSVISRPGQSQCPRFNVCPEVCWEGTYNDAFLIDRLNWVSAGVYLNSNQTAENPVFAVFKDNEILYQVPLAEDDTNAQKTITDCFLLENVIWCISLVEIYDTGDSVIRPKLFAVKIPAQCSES

B1: LN3D3 Fab (Fab, V domains shown)
VH: EVKLEESGPELVKPGASVKMSCKASGYTFTNYVMHWVKQKPGQGLEWIGYVNPYNDGTQYNEKFRDKATLTSDKSSSTVYMELNSLTSEDSAVYYCTRGDYPYWVFEVWGAGTTVTVSS
VL: EIQMTQSPATLSVTPGDSVSLSCRASQSISNNLHWYQQKSHESPRLLIKYASQSISGIPSRFSGSGSGTDFTLSINNLETEDFGMYFCQHSDSWPFTFGSGTKLEIK
As for B1, in experiment [1], the binding result is recorded as “binds”.

B2: LN3D3 mAb (IgG) (antibody, V domains shown)
VH: EVKLEESGPELVKPGASVKMSCKASGYTFTNYVMHWVKQKPGQGLEWIGYVNPYNDGTQYNEKFRDKATLTSDKSSSTVYMELNSLTSEDSAVYYCTRGDYPYWVFEVWGAGTTVTVSS
VL: EIQMTQSPATLSVTPGDSVSLSCRASQSISNNLHWYQQKSHESPRLLIKYASQSISGIPSRFSGSGSGTDFTLSINNLETEDFGMYFCQHSDSWPFTFGSGTKLEIK
In the case of B2, the binding result in experiment [2] is “binds”; in experiment [3], “binds”; in experiment [4], “no binding (tested: 1 μg/mL)”; in experiment [5] it was “no binding (tested: 1 μg/mL)”.

B3: human ephrin-B2 (residues 27-167) (receptor)
chain: SIVLEPIYWNSSNSKFLPGQGLVLYPQIGDKLDIICPKVDSKTVGQYEYYKVYMVDKDQADRCTIKKENTPLLNCAKPDQDIKFTIKFQEFSPNLWGLEFQKNKDYYIISTSNGSLEGLDNQEGGVCQTRAMKILMKVGQD
Turning to B3, the binding result in experiment [6] is given as “binds”.

B4: LN1F9 Fab (Fab, V domains shown)
VH: EVKLVESGGGLVKPGGSLKLSCAASGFSFRNYAMSWVRQSPEKRLEWVAEVSSGGGYTYYPDTVTGRFTISRDNAKNILYLEMSSLRSEDTAMYYCTRDPDSSGYLAWFAYWGQGTLVTVSA
VL: DILLTQSPASLSASVGETVTITCRASENINSYLAWYQQKQGKSPQLLVYNAKTLAEGVPSRFSGSGSDTQFSLKINTLQPEDFGTYYCQHHSGTPYTFGGGTKLEIK
For B4, in experiment [7], the binding result is listed as “binds”.

B5: LN1F9 mAb (IgG) (antibody, V domains shown)
VH: EVKLVESGGGLVKPGGSLKLSCAASGFSFRNYAMSWVRQSPEKRLEWVAEVSSGGGYTYYPDTVTGRFTISRDNAKNILYLEMSSLRSEDTAMYYCTRDPDSSGYLAWFAYWGQGTLVTVSA
VL: DILLTQSPASLSASVGETVTITCRASENINSYLAWYQQKQGKSPQLLVYNAKTLAEGVPSRFSGSGSDTQFSLKINTLQPEDFGTYYCQHHSGTPYTFGGGTKLEIK
As for B5, the binding result is “binds” in experiment [2]; “binds” in experiment [3]; “binds” in experiment [8]; “no binding (tested: 1 μg/mL)” in experiment [4]; “no binding (tested: 1 μg/mL)” in experiment [5].

B6: S2B10 mAb (IgG) (antibody, V domains shown)
VH: QMQLQESGPGLVKPSQSLSLTCTVTGYSITSDYAWNWIRQFPRNKLEWMGFITYSGSTSYNPSLKSRISLTRDTSKNQFFLQLSSVTTEDTATYYCARSGANWDWFAYWGQGTLVTVSA
VL: DIQMTQSPASLAVSLGQRATISCRASESVDNYGNSFMHWYQQKPGQPPKLLIYRASKLESGIPARFSGSGSRTDFTLTINPVEADDVATYHCQQSNEDPWTFGGGTKLEIK
In the case of B6, the binding result was “binds” in experiment [2], “binds” in experiment [3], “no binding (tested: 1 μg/mL)” in experiment [4] and “no binding (tested: 1 μg/mL)” in experiment [5].

B7: S2B10 Fab (Fab, V domains shown)
VH: QMQLQESGPGLVKPSQSLSLTCTVTGYSITSDYAWNWIRQFPRNKLEWMGFITYSGSTSYNPSLKSRISLTRDTSKNQFFLQLSSVTTEDTATYYCARSGANWDWFAYWGQGTLVTVSA
VL: DIQMTQSPASLAVSLGQRATISCRASESVDNYGNSFMHWYQQKPGQPPKLLIYRASKLESGIPARFSGSGSRTDFTLTINPVEADDVATYHCQQSNEDPWTFGGGTKLEIK
Turning to B7, the binding result in experiment [1] is recorded as “binds”.

B8: S1E2 mAb (IgG) (antibody, V domains shown)
VH: QMQLQESGPGLVKPSQSLSLTCSVTGYSITSGYYWNWIRQFSGNKLEWMGYINHDGSKNYNPSLKNRISITRDTSKNQFFLKLNSVTTEDTATYYCARDYGSYYYPMDYWGQGTSVTVSS
VL: EIVLTQSPPIMSASPGEKVTITCSASSSVTFMHWFQQKPGTSPKLWIFSTSNLASGVPARFSGSGSGTSYSLTISRMEAEDAATYYCQQRSSYPFTFGSGTKLEIK
As for B8, the binding result in experiment [2] was “binds”; in experiment [3] it was “binds”; in experiment [4], “no binding (tested: 1 μg/mL)”; in experiment [5], “no binding (tested: 1 μg/mL)”.

B9: S1E2 Fab (Fab, V domains shown)
VH: QMQLQESGPGLVKPSQSLSLTCSVTGYSITSGYYWNWIRQFSGNKLEWMGYINHDGSKNYNPSLKNRISITRDTSKNQFFLKLNSVTTEDTATYYCARDYGSYYYPMDYWGQGTSVTVSS
VL: EIVLTQSPPIMSASPGEKVTITCSASSSVTFMHWFQQKPGTSPKLWIFSTSNLASGVPARFSGSGSGTSYSLTISRMEAEDAATYYCQQRSSYPFTFGSGTKLEIK
Regarding B9, the binding result in experiment [1] was “binds”.

The values above are taken from PMC12780214 (NPJ Vaccines, 2025).
